Data taken from the DeepSol protein solubility set.

Test: soluble on expression in E. coli; label from the status in PepcDB or PDB records

Sequence: MAISVFDLFSIGIGPSSSHTVGPMRAARMFARRLRNEELLDSVASVRVELYGSLGATGHGHGTPKAVLLGLEGDSPRTVDVESADDRVETIKSSGRISLLGDHEIAFAYDDDMVLHRRKALPYHANGMTLWAYDAEGAEVLTKTYYSVGGGFVVDEDAVGADRIVLDDTVLKYPFRTGDELLRLARETGLSISALMLENERAWRDEDEIREGLLEIWRVMRACVDRGMTREGILPGGLKVRRRAANTARKLRSEGDPQALAMEWITLYAMAVNEENAAGGRVVTAPTNGAAGIIPAVLHYYMNFVPGADEDGVVRFLLAAGAIGMLFKENASISGAEVGCQGEVGSACSMAAGALAEVLGGSPEQVENAAEIGMEHNLGLTCDPVGGLVQIPCIERNGMAAVKAVTAARMAMRGDGSHKVSLDKVIKTMKETGADMSVKYKETARGGLAVNIIEC
- soluble on expression in E. coli: not soluble

Sequence: MGSDKIHHHHHHMMFLPEQISKLNELETLVFDFIIKSPEEVQQMTIRDLASQAHVSTSTIVRLCTKLGFEGWSDLKFYLKNQLKEKTPEEQHYDNMLEFNMFLRRMNTDNYQAKLNNAAQMIAKADYTVFLGLGTSGSLSEYATKYFVNTGLRSFVISDPFQAVQVQGMGNVVAVIMSVSGETEQVVNKELEFKAGGAKIISITNNEDCTVAKLADYQLSYNLVNEWSKQYPLGNLTTQLPVLAILEILAHKSIDYHLKK
- soluble on expression in E. coli: not soluble

Sequence: GMNSNFSYPALGVDGISSQISPIRDVWSTNLQQEMNLIMSLIERYPVVSMDTEFPGVVARPLGVFKSSDDYHYQTLRANVDSLKIIQIGLALSDEEGNAPVEACTWQFNFTFNLQDDMYAPESIELLTKSGIDFKKHQEVGIEPADFAELLIGSGLVLQEEVTWITFHSGYDFAYLLKAMTQIPLPAEYEEFYKILCIYFPKNYDIKYIMKSVLNNSKGLQDIADDLQIHRIGPQHQAGSDALLTARIFFEIRSRYFDGSIDSRMLNQLYGLGSTGSVLWHNNSSTPQIQFRDLPGAHPSPTPSNAGIPTTLTNTSSAPNFANSTFRFPPRVV
- soluble on expression in E. coli: soluble

Sequence: MGSDKIHHHHHHMIMLTVSDYLAQPVVSPDVSIRYGDHPDQFGDLYLPAQVHPAPVVMMIHGGCWQAAYPLTPLGECCAALRARGYAVWNLEYRRLGNGGGWPSTFLDVAAGADHLRVLAEHYPLDLNRVVVVGHSAGGHLALWLATRPKLPPTSPLYIPHPLPVHGVVALAAVADLRRGVTATACGTACLELIDNEESRCAEASPHARLPLDIPHYHLVGGDDPIVPASYVAAFVDAARQAGDLAHLTIVPKCGHFELTTPHSQAWQTVVQTIDKACSLNRS
- soluble on expression in E. coli: not soluble

Sequence: MSLTNDVDAIQPIGLRRIDHIAQTMKFDEMQDWLLYYISTFEMDKSSIVNVNDPSGIILSQAIESPEGEVRLNLNASEDLNTFAGLFVEDKFGAGVQHIAFASDDIFESANLLRINGFKSLAIPSGYYEETKNKFNLNDTFIAQLKKQNILYDQDGNSEYFQIYSKNLFDGFFFEIVQRKNGYSGYGARNASVRLSSQTILQQAEGHHHHHH
- soluble on expression in E. coli: not soluble

Sequence: MNKNLKFTQMMIGISTMALSFGSIQTHVSAEETASYNILQMKPIGTETSKDEIVHATKADETLTFEERLKVGDFSQRPTLVMERDEIQLKQSYTLAELNKMPNSELIDTLSKISWNQITDLFQFNQDTKAFYQNKERMNVIINELGQRGRTFTKENSKGIETFVEVLRSAFYVGYYNNELSYLKERSFHEKCLPALKAIAKNPNFTLGTAEQDRVVAAYGKLIGNASSDTETVQYAVNVLKQYNDNLTTYVSDYAKGQAVYEIVKGIDYDIQSYLQDTNKQPNETMWYGKIDNFINEVNRIALVGNITNENSWLINNGIYYAGRLGKFHSNPYKGLEVITQAMSLYPRLSGPYFVAVEQIKTNYGGKDYSGKAVDLQKIREEGKRQYLPKTYTFDDGSIVFKTGDKVTEEKIKRLYWAAKEVKAQYHRVIGNDKALEPGNADDVLTIVIYNNPDEYQLNRQLYGYETNNGGIYIEEKRTFFTYERTPKQSIYSLEELFRHEFTHYLQGRYEVPGLFGSGEMYQNERLTWFQEGNAEFFAGSTRTNNVVPRKSMISGLSSDPASRYTAKQTLFSKYGSWDFYKYSFALQSYLYNHQFDTFDKLQDLIRVNDVKNYDSYRESLSNNTQLNAEYQAYMQQLIDNQDKYNVPQVTNDYLIQHAPKPLAEVKNEIVDVANIKDAKITKYESQFFNTFTVEGKYTGGTSKGESEDWKTMSKQVNRTLEQLSQKGWSGYKTVTAYFVNYRVNAANQFEYDIVFHGVATEEKEKTNTIVNMNGPYSGIVNEEIQFHSDGTKSENGKVTSYLWNFGDGTTSTEANPTHVYEEKGTYTVELTVKDRRGKESKEQTKVTVKQDPQTGEFHEEEKVLLFNTLVKGNLVTPDQTDVYTFDVTDTKEVDISVVNEQNIGMTWVLYHESDMQNYVACGEDEGNVIKGKFEAKPGKYYLNVYKFDDKNGEYSLLVK
- soluble on expression in E. coli: not soluble

Sequence: MGSDKIHHHHHHMKLVSLRLEEGLIEKIDEVARKTLQSRSEIIRSSIALYLSLLENIGFYFKPSLPMKNVDVYEERNAVNVDLGNLTSVSVLSVSYGGVGELELDFRKDLGFVAEVMANQVAVETCCRFITPLLVMLTSTCEFLYTHTFFRMFSEAIRERMKVRTMLAGYEEFFETKQSGFVATVVGLRDMSTRNSPRRGDRIYFFGNAVSGAELSEEELLDMADVERLVGLVKEGKASAIFPVKSGGLKEVADYAAALAGGKAMLFEKRGGCPATAIVLTSAEDLSGYGCELVGEIL
- soluble on expression in E. coli: not soluble

Sequence: MGSDKIHHHHHHMEYNDVVEAVISALKKAHTELPEDVVTAIKKAYDSEENDIAKRNLEAILKNIEAAKKLGVPMCQDTGIPVFFVEVGRELCLDFDLKEAIVEGVRKATAEIPLRPNAVHPITRENSGDNTGLGIPQINVELVKGDELRMVVMPKGAGSENVSALKMMLPTQVDKIKDFVVETVKNAGGKPCPPIFVGVGVGSTFDGAAKLAKKALLRNVLEMNDFELELLEAVNELGIGAMGLGGKYTALAVLVEFGHCHTASLPVAVNIQCWANRRAEVVLR
- soluble on expression in E. coli: not soluble

Sequence: MTDILIDNTATETVRTLIRAFPLVPVSQPPEQGSYLLAEHDTVSLRLVGEKSSVIVDFASGAAQYRRTKGGGELIAKAVNHTAHPTVWDATAGLGRDSFVLASLGLAVTAFEQHPAVACLLSDGIRRALLNPETQNTAAHINLHFGNAAEQMPALVQTQGKPDIVYLDPMYPERRKSAAVKKEMTYFHRLVGEAQDEAALLHTARQTAKKRVVVKRPRLGEHLAGQDPAYQYTGKSTRFDVYLPYGTDKG
- soluble on expression in E. coli: not soluble

Sequence: MAYHADSADLETKEILTWEGFGIANRELAQQIVDSNYTPDIIVAVARGGLVPAGALSYSMGIKLSDAINVEFYTDVNETLPDPVLLEPLLDTNSIRGKKVLVVDDVADSGRTLDLVLKLLENHGAEVRSAVIYAKSRSIVAPNYIWKRTDEWIVFPWSAEPPVTKA
- soluble on expression in E. coli: not soluble

Sequence: MQNRKFLTHHEINLLLQSVKQKSCSSRDVCMILLAYFHGLRVSELLSLQLSDLELTTEKIYIQRIKNGFSTVHPLQKEEVIAITNWLNERNSLNVKHFNDNPWLFVSRTGKPLSRQRFYNI
- soluble on expression in E. coli: not soluble

Sequence: MGSDKIHHHHHHMATSQERLGMNLKKCIQRLRKVANRGPSHKARLENIDEKIVVTGTRGKSGATRWLYEILYGRGRDAFAKITGNRPLVLHDGESHPIERGRRVTLYENEAQLRQYAPVETAIFENQAIGEYTTRTVHQRFTDPDVIFLTNIRSDHLDWLGDTPTQIARSFARTIPDGVTLVVGEQRPTLRAMLKRELEETDVQIRWVLVPKALQNVPGAETILGLNDVLEALGEQPLSDRQIEAYIDEMQVRWTTLADGRVYNAASVNDIDSTEIVRRALDDNDVDTIQPLIYLRPDRRARTASFLSYLDGLYSDDVFEVTHAVGPHAELFDNQASFPVATHDASKSASAVLDAALSPGWPVFIMGNTVADFMRDLEAEIEARRVDSSQGMPEKSTSANEKRAIERPQ
- soluble on expression in E. coli: not soluble

Sequence: MSLSEVSLRPAKISTVLPGSLGEEMGFEPGDAIVRINGQAPRDLIDYQFLCADDYLELDVLDSQGELHELAVEKEFDQDLGLGFETALFDGLIQCNNRCPFCFIDQQPPGKRESLYYKDDDYRLSFLYGSYLTLTNLSAKEWQRIEQLRLSPLYVSIHATEASVRERLLKNHRAGQILDQLAWFQARRLQIHAQVVVCPGVNDGKHLEQTLRDLAQFHQGETPAVISVAVVPVGLTRFRPQEDELSPVGQAKATEVIAQVQALQKEFAQQLGGNFVWLADEWFLIARQPLPPESHYEDYPQIGNGVGSIRQFIKEFQQQAAEFLPPAIAEAKTLTWVVGNAVEQAFELLVEQLNQVKGLTVNLAPLNSDYWGQEITVTGLLTGQDLIAKLAGRDLGDGILLPALMLKHDDTRFLDDLRVADVAQKLGTTIYPVADVASLLEHCVQPMAVSREGHHHHHH
- soluble on expression in E. coli: soluble

Sequence: MALLCYNRGCGQRFDPETNSDDACTYHPGVPVFHDALKGWSCCKRRTTDFSDFLSIVGCTKGRHNSEKPPEPVKPEVKTTEKKELCELKPKFQEHIIQAPKPVEAIKRPSPDEPMTNLELKISASLKQALDKLKLSSGNEENKKEEDNDEIKIGTSCKNGGCSKTYQGLESLEEVCVYHSGVPIFHEGMKYWSCCRRKTSDFNTFLAQEGCTKGKHMWTKKDAGKKVVPCRHDLHQTGGEVTISVYAKNSLPELSRVEANSTLLNVIIVFEGEKEFDQNVKLWGVIDVKRSYVTMTATKIEITMRKAEPMQWASLELPAAKKQEKQKDDTTD
- soluble on expression in E. coli: soluble

Sequence: MGSSHHHHHHSSGLVPRGSHMASERPVSTLSSQITGELRELNPQATGSSTSLVGQSLFQHSSLDTSQFGLNASIAEVLNASFKDGMLQNSQLIGEIALNYLPNSVMNSPLPIGINLRINNGAKFEKVILNQAFIERVAPEEFKVNPSFIDSRTLGAIKYSIKEPIAPIVIHPVWRFESHQASVVLTVKMSPSLPDEISQIVIEDLVVFVNIDGANATSALSKPQGSFSKEKKRITWRFKEPVVLTRNGEGQRLIARFITDGLAHESAKGVITKFTISETDNVALPHSGAGSGITLTCQELDENNPFGGEWLDVNTKRTLTTGNYHGLA
- soluble on expression in E. coli: soluble

Sequence: METLIAISRWLAKQHVVTWCVQQEGELWCANAFYLFDAQKVAFYILTEEKTRHAQMSGPQAAVAGTVNGQPKTVALIRGVQFKGEIRRLEGEESDLARKAYNRRFPVARMLSAPVWEIRLDEIKFTDNTLGFGKKMIWLRDSGTEQA
- soluble on expression in E. coli: soluble

Sequence: MSVSKKLFSTAVRGKSWWSHVEMGPPDAILGVTEAFKADSNPKKINLGVGAYRDDQGKPFVLPSVKEAERQVIAANLDKEYAGIVGLPEFTKLSAQLALGENSDVIKNKRIFTTQSISGTGALRIGSEFLSKYAKTKVIYQPTPTWGNHVPIFKFAGVDVKQYRYYDKSTCGFDETGALADIAQIPEGSTILLHACAHNPTGVDPSRDQWKKISDIVKKRNLFVFFDMAYQGFASGDVDNDAFAVRYFVEQGHNIVLSQSFAKNMGLYGERVGAFSVVTSDADEAARVASQVKILIRPLYSNPPVHGARIASRILADPALNKQWLGDVKLMADRIITMRTTLKDLLAKEGSTRNWEHITNQIGMFCFTGINPQQVEKLIKEHSVYLTKDGRISVAGISSNNVAYLAHALHQVTK
- soluble on expression in E. coli: not soluble

Sequence: MSLYISYSPLRITFGGGGTDVEPFLSKHGGAVVNATIDRGVSVRYIEDEFQLELSSRDFVRSYIVNMHRAASVTKMMADFLSEAGITNGRVIMSGDAPPGSGLGSSSSAVSALMNLVNSIRGRTVDPATLAEESYNLERNHFHVVLGKQDPYAIAYGGFKYMEFGADGVKREDLGQYSEFTTELQRRILLVYTGKTRQSSEVLMEQVKASEMGDEKTDRNLLQMKDVARRLRDAVVKNDMDEFAHQINRGWEIKKSLSSRITNDHIDRIIALALSNGAQAARLMGGGSQGFVLVMCKPENLNYIQRRMMSISNFVVRTSFDMKGTRMIGHEGHHHHHH
- soluble on expression in E. coli: not soluble
